Assay results as given in paper PMC3977929, “Affinity- and Specificity-Enhancing Mutations Are Frequent in Multispecific Interactions between TIMP2 and MMPs” (PLoS ONE, 2014).
Changes are numbered by the printed parent chain. Names may count otherwise.

B1: N-TIMP2 WT (N-terminal domain of Tissue Inhibitor of Metalloproteinases 2, residues 1-127) (domain or fragment, human, UniProt P16035 27-153, looked up)
chain: CSCSPVHPQQAFCNADVVIRAKAVSEKEVDSGNDIYGNPIKRIQYEIKQIKMFKGPEKDIEFIYTAPSSAVCGVSLDVGGKKEYLIAGKAEGDGKMHITLCDFIVPWDTLSTTQKKSLNHRYQMGCE
notes: Monomeric fraction used; also called WT N-TIMP2
B2: N-TIMP2 H97R (domain or fragment, human, UniProt P16035 27-153, looked up)
chain: B1 chain with H97R
notes: TIMP2, human, N-terminal domain, residues 1-127
B3: N-TIMP2 I35E (domain or fragment, human, UniProt P16035 27-153, looked up)
chain: B1 chain with I35E
notes: as for B2
B4: N-TIMP2 I35K (domain or fragment, human, UniProt P16035 27-153, looked up)
chain: B1 chain with I35K
notes: as for B2
B5: N-TIMP2 N38Q (domain or fragment, human, UniProt P16035 27-153, looked up)
chain: B1 chain with N38Q
notes: as for B2
B6: N-TIMP2 S4A (domain or fragment, human, UniProt P16035 27-153, looked up)
chain: B1 chain with S4A
notes: as for B2
B7: N-TIMP2 S4E (domain or fragment, human, UniProt P16035 27-153, looked up)
chain: B1 chain with S4E
notes: TIMP2, human, N-terminal domain, residues 1-127; also called S04E
B8: N-TIMP2 S4Q (domain or fragment, human, UniProt P16035 27-153, looked up)
chain: B1 chain with S4Q
notes: TIMP2, human, N-terminal domain, residues 1-127; also called S04Q
B9: N-TIMP2 S4R (domain or fragment, human, UniProt P16035 27-153, looked up)
chain: B1 chain with S4R
notes: TIMP2, human, N-terminal domain, residues 1-127; also called S04R
B10: N-TIMP2 S68W (domain or fragment, human, UniProt P16035 27-153, looked up)
chain: B1 chain with S68W
notes: as for B2
B11: N-TIMP2 S68Y (domain or fragment, human, UniProt P16035 27-153, looked up)
chain: B1 chain with S68Y
notes: as for B2
B12: N-TIMP2 T99Y (domain or fragment, human, UniProt P16035 27-153, looked up)
chain: B1 chain with T99Y
notes: as for B2
B13: N-TIMP2 V6R (domain or fragment, human, UniProt P16035 27-153, looked up)
chain: B1 chain with V6R
notes: TIMP2, human, N-terminal domain, residues 1-127; also called V06R
B14: N-TIMP2 V71N (domain or fragment, human, UniProt P16035 27-153, looked up)
chain: B1 chain with V71N
notes: as for B2

Molecular target: T1, MMP9 catalytic domain (UniProt P14780 107-444)
T1 construct: Matrix Metalloproteinase 9 (MMP9), catalytic domain; source: expressed recombinantly and purified as published before [12]
T1 sequence (P14780 107-444): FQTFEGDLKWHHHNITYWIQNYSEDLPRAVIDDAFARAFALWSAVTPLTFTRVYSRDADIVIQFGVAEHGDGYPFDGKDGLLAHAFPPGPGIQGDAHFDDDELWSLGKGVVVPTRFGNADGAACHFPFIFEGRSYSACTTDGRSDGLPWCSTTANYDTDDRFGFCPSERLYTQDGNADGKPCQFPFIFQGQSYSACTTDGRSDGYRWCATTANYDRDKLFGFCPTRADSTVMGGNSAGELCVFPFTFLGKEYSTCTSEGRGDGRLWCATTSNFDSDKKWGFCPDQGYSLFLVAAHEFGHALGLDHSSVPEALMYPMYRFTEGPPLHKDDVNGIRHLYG
Assay: enzyme activity (inhibition) assay with a fluorogenic substrate; various concentrations of N-TIMP2 pre-incubated 1 hour with MMP9 (0.2 nM) or MMP14 (0.5 nM) in 50 mM Tris-HCl, 0.15 M NaCl, 10 mM CaCl2, 0.02% Brij 35, pH 7.5, 37°C; fraction of enzyme activity fitted to a 1:1 binding model to give Kd
Conditions: both partners purified

| Binder | Kd [nM] |
| --- | --- |
| B1 | 0.9 |
| B2 | 0.5 |
| B3 | 2.5 |
| B4 | 0.58 |
| B5 | 2.4 |
| B6 | 0.85 |
| B7 | 15.5 |
| B8 | 1.39 |
| B9 | 0.55 |
| B10 | 0.37 |
| B11 | 0.8 |
| B12 | 1.1 |
| B13 | 0.5 |
| B14 | 4.68 |

Molecular target: T2, MMP14 catalytic domain (UniProt P50281 112-285)
T2 construct: Matrix Metalloproteinase 14 (MMP14), catalytic domain; source: expressed recombinantly and purified as published before [12]
Assay: as above
Conditions: both partners purified

| Binder | Kd [nM] |
| --- | --- |
| B1 | 4.5 |
| B2 | 0.32 |
| B3 | 5.4 |
| B4 | 0.38 |
| B5 | 3.4 |
| B6 | 1.4 |
| B7 | 9.5 |
| B8 | 1.9 |
| B9 | 2.7 |
| B10 | 0.91 |
| B11 | 1.1 |
| B12 | 1.05 |
| B13 | 1.3 |
| B14 | 6.5 |
